# Test results taken from US20220041717A1 (AFFIMED, published 2022).
# T1: B-cell maturation antigen (BCMA) on myeloma cell lines (human, UniProt Q02223 1-184)
# T1 construct: whole, on cells; also called CD269; TNFRSF17
# T1 sequence (looked up): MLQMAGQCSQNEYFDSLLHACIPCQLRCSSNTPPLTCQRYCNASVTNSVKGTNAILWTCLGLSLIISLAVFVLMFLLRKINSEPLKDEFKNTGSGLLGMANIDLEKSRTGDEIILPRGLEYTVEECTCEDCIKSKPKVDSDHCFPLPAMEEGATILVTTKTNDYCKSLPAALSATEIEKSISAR
# B1: Anti-CD16A diabody (protein, not shown: small tags and cut ends)
# VL: SYVLTQPSSVSVAPGQTATISCGGHNIGSKNVHWYQQRPGQSPVLVIYQDNKRPSGIPERFSGSNSGNTATLTISGTQAMDEADYYCQVWDNYSVLFGGGTKLTVL
# VH: QVQLVQSGAEVKKPGESLKVSCKASGYTFTSYYMHWVRQAPGQGLEWMGAIEPMYGSTSYAQKFQGRVTMTRDTSTSTVYMELSSLRSEDTAVYYCARGSAYYYDFADYWGQGTLVTVSS
# modifications: diabody linker not stated
# B2: Anti-CD16A scFv (scFv, V domains shown, part only)
# VL: B1 VL
# VH: B1 VH
# B3: BCMA/CD16A-directed tandem diabody in variant 4 (bispecific antibody)
# chain: QVQLVQSGAEVKTPGEPLKISCKGSGYSFTDSWIGWVRQMPGKGLEWMGIIYAGDSDARYSPSFQGQVTISADTSTSTVYLQWSSLKASDTAMYYCARNFGDHWGQGTLVTVSSGGSGGSGGSGGSSYVLTQPSSVSVAPGQTATISCGGHNIGSKNVHWYQQRPGQSPVLVIYQDNKRPSGIPERFSGSNSGNTATLTISGTQAMDEADYYCQVWDNYSVLFGGGTKLTVLGGSQVQLVQSGAEVKKPGESLKVSCKASGYTFTSYYMHWVRQAPGQGLEWMGAIEPMYGSTSYAQKFQGRVTMTRDTSTSTVYMELSSLRSEDTAVYYCARGSAYYYDFADYWGQGTLVTVSSGGSGGSGGSGGSSYELTQSPSVSVAPGQTARIFCGGDNIGSKNVHWYQQKPGQAPVLVIYRDSNRPSGIPERFSGANSENTATLTISRAQAGDEADYYCQVWDSRTYVFGTGTKLTVL
# notes: also called tandem diabody variant 4; Tandem diabody (v4)
# B4: elotuzumab (antibody, V domains shown)
# VH: EVQLVESGGGLVQPGGSLRLSCAASGFDFSRYWMSWVRQAPGKGLEWIGEINPDSSTINYAPSLKDKFIISRDNAKNSLYLQMNSLRAEDTAVYYCARPDGNYWYFDVWGQGTLVTVSS
# VL: DIQMTQSPSSLSASVGDRVTITCKASQDVGIAVAWYQQKPGKVPKLLIYWASTRHTGVPDRFSGSGSGTDFTLTISSLQPEDVATYYCQQYSSYPYTFGQGTKVEIK
# What was measured:
# [1] = molecular target: CD16A (FcgammaRIIIA) on primary human NK-cells (human) (UniProt P08637); test: cell-based or functional assay
# Sequence of CD16A (FcgammaRIIIA) on primary human NK-cells (human) (P08637 17-208): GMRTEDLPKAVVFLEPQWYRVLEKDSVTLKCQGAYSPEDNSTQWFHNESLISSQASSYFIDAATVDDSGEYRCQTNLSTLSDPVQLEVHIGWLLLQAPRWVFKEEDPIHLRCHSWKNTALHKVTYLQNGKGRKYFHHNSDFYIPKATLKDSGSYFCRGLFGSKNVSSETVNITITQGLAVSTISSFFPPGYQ
# [2] = molecular target: CD16A (FcgammaRIIIA) on primary human NK-cells (human) (UniProt P08637); test: flow cytometry titration on primary human NK-cells, 37 C; detection with anti-His mAb, FITC goat anti-mouse IgG
# [3] = molecular target: CD16A (FcgammaRIIIA) on primary human NK-cells (human) (UniProt P08637); test: flow cytometry, titration on primary human NK-cells at 37 C, buffer; detection with anti-His mAb
# [4] = molecular target: T2, CD16A (FcgammaRIIIA) on primary human NK-cells (human, UniProt P08637 17-208); test: flow cytometry, titration on primary human NK-cells at 37 C, buffer; apparent affinity; detection via BCMA(1-54)-GCN4-His/anti-His
# T2 construct: The assays used primary human NK-cells
# T2 sequence (P08637 17-208): as above
# [5] = molecular target: T2, CD16A (FcgammaRIIIA) on primary human …; test: cell-based or functional assay
# [6] = molecular target: T1, B-cell maturation antigen (BCMA) on …; test: flow cytometry titration on MM.1S cells; detection with CD16A-mFc.67/anti-human-FITC
# Method: (§1) Antibody binding was quantified by detection with CD16A-mFc.67/anti-human-FITC and flow cytometry. control antibodies anti-BCMA (ANC3B1), anti-CD38 (HB7) and anti-CS1 (235614) were added at saturating concentrations and detected by anti-mouse-Fc-FITC (ctrl.)
# [7] = molecular target: T1, B-cell maturation antigen (BCMA) on …; test: cell-based or functional assay
# [8] = molecular target: T1, B-cell maturation antigen (BCMA) on …; test: flow cytometry, titration on MM.1S cells; detection with CD16A-mFc.67/anti-human-FITC
# Method: as §1
# [9] = molecular target: T2, CD16A (FcgammaRIIIA) on primary human …; test: flow cytometry on primary human NK-cells, with against without 10 mg/mL polyclonal human IgG
# [10] = molecular target: T2, CD16A (FcgammaRIIIA) on primary human …; test: flow cytometry titration on primary human NK-cells, 37 C, buffer without IgG; detection with BCMA(1-54)-GCN4-His, anti-His mAb, FITC goat anti-mouse IgG
# [11] = molecular target: T2, CD16A (FcgammaRIIIA) on primary human …; test: flow cytometry, titration on primary human NK-cells at 37 C in presence of 10 mg/mL polyclonal human IgG (competitor)
# [12] = molecular target: T2, CD16A (FcgammaRIIIA) on primary human …; test: flow cytometry, titration on primary human NK-cells at 37 C, buffer; apparent affinity
# Method: (§2) Method: Serial dilutions of anti-CD16A scFv are added to primary human NK-cells at 37° C. for 45 min followed by detection of antibody binding on ice.
# [13] = molecular target: T1, B-cell maturation antigen (BCMA) on …; test: flow cytometry titration on NCI-H929 cells; detection with CD16A-mFc.67/anti-human-FITC
# Method: as §1
# [14] = molecular target: T1, B-cell maturation antigen (BCMA) on …; test: cell-based or functional assay; remark: listed apart in the source
# [15] = molecular target: T2, CD16A (FcgammaRIIIA) on primary human …; test: flow cytometry titration on primary human NK-cells, 37 C, in presence of 10 mg/mL polyclonal human IgG; detection with BCMA(1-54)-GCN4-His, anti-His mAb, FITC goat anti-mouse IgG
# [16] = molecular target: T2, CD16A (FcgammaRIIIA) on primary human …; test: flow cytometry titration on primary human NK-cells, 37 C; detection with BCMA(1-54)-GCN4-His, anti-His mAb, FITC goat anti-mouse IgG
# Method: as §2
# [17] = molecular target: T1, B-cell maturation antigen (BCMA) on …; test: flow cytometry, titration on RPMI-8226 cells; detection with CD16A-mFc.67/anti-human-FITC
# Method: as §1
# [18] = molecular target: T1, B-cell maturation antigen (BCMA) on …; test: flow cytometry, titration on NCI-H929 cells; detection with CD16A-mFc.67/anti-human-FITC
# Method: as §1
# CS1 on myeloma cells [19] = molecular target: T3, CS1 on myeloma cells (UniProt Q9NQ25 23-335, limits assumed); test: cell-based or functional assay
# CS1 on myeloma cells [20] = molecular target: T3, CS1 on myeloma cells; test: flow cytometry, titration on MM.1S cells; detection with CD16A-mFc.67/anti-human-FITC
# Method: as §1
# CS1 on myeloma cells [21] = molecular target: T3, CS1 on myeloma cells; test: cell-based or functional assay; remark: listed apart in the source
# CS1 on myeloma cells [22] = molecular target: T3, CS1 on myeloma cells; test: flow cytometry, titration on NCI-H929 cells; detection with CD16A-mFc.67/anti-human-FITC
# Method: as §1
binder,measurement,setting,value
B1,EC50 of antibody-induced NK-cell-NK-cell lysis (4 h calcein release),[1],0.659 nM
B2,EC50 (read off the curve),[2],10 nM
same,Kd,[3],12.2 nM
B3,Kd,[4],1.2 nM
same,"EC50 of NK-cell-mediated lysis of BCMA+ NCI-H929 cells (4 h calcein release), 10 mg/mL polyclonal human IgG",[5],0.0761 nM
same,"EC50 of NK-cell-mediated lysis of BCMA+ NCI-H929 cells (4 h calcein release), buffer",[5],0.0162 nM
same,Fold-loss in potency (EC50 with 10 mg/mL IgG against buffer),[5],4.7 fold
same,EC50 (read off the curve),[6],~10 nM
same,EC50 of NK-cell-mediated lysis of MM.1S cells (4 h calcein release),[7],0.0037 nM
same,EC50 of NK-cell-mediated lysis of NCI-H929 cells (4 h calcein release),[7],0.0091 nM
same,EC50 of NK-cell-mediated lysis of RPMI-8226 cells (4 h calcein release),[7],0.0623 nM
same,Kd,[8],11.5 nM
same,fold-change (KD with 10 mg/mL IgG against KD in buffer),[9],3 fold
same,EC50 (read off the curve),[10],~1 nM
same,Kd,[11],3.6 nM
same,Kd,[12],1.2 nM
same,EC50 (read off the curve),[13],~20 nM
same,EC50 of NK-cell-mediated lysis of primary myeloma cells from a pleural effusion (multiple myeloma; 4 h 51Cr release),[14],0.004 nM
same,EC50 of NK-cell-mediated lysis of primary myeloma cells from peripheral blood (plasma cell leukemia; 4 h 51Cr release),[14],0.0063 nM
same,EC50 (read off the curve),[15],~4 nM
same,EC50 (read off the curve),[16],~1 nM
same,Kd,[17],26.7 nM
same,Kd,[18],27.7 nM
B4,EC50 of NK-cell-mediated lysis of MM.1S cells (4 h calcein release),CS1 on myeloma cells [19],0.153 nM
same,EC50 of NK-cell-mediated lysis of NCI-H929 cells (4 h calcein release),CS1 on myeloma cells [19],0.394 nM
same,Kd,CS1 on myeloma cells [20],35.7 nM
same,EC50 of NK-cell-mediated lysis of primary myeloma cells (multiple myeloma; 4 h 51Cr release),CS1 on myeloma cells [21],0.145 nM
same,EC50 of NK-cell-mediated lysis of primary myeloma cells (plasma cell leukemia; 4 h 51Cr release),CS1 on myeloma cells [21],0.0782 nM
same,Kd,CS1 on myeloma cells [22],36 nM
